Data on one molecule can be found in US20100120068A1 (PHARMACOME, published 2010).

The assay concerns the target T1, human α1A-adrenergic receptor (human, UniProt P35348 1-466).
T1 construct: Expressed in CHO-K1 cells either alone (α1A cells) or together with CRELD1α (α1L cells); also called ADRA1A; α1A-subtype
T1 sequence: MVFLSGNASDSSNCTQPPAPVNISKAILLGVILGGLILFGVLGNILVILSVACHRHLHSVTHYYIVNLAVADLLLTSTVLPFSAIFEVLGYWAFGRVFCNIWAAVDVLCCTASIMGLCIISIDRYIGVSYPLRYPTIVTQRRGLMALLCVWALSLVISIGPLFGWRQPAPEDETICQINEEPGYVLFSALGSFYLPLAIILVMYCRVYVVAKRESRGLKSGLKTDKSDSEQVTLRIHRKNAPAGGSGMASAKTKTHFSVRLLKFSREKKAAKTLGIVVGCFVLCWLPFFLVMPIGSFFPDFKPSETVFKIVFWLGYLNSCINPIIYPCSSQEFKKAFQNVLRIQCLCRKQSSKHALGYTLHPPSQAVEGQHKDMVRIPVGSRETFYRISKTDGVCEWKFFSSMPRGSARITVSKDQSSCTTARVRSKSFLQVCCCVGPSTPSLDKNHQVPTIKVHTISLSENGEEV
Put plainly: method not described; told in the description only.

B1: CRELD (cysteine-rich with EGF-like domains) 1α protein (other)
chain: QPSPPPQSSPPPQPHPCHTCRGLVDSFNKGLERTIRDNFGGGNTAWEEENLSKYKDSETRLVEVLEGVCSKSDFECHRLLELSEELVESWWFHKQQEAPDLFQWLCSDSLKLCCPAGTFGPSCLPCPGGTERPCGGYGQCEGEGTRGGSGHCDCQAGYGGEACGQCGLGYFEAERNASHLVCSACFGPCARCSGPEESNCLQCKKGWALHHLKCVDIDECGTEGANCGADQFCVNTEGSYECRDCAKACLGCMGAGPGRCKKCSPGYQQVGSKCLDVDECETEVCPGENKQCENTEGGYRCICAEGYKQMEGICVKEQIPESAGFFSEMTEDELVVLQQMFFGIIICALATLAAKGDLVFTAIFIGAVAAMTGYWLSERSDRVLEGFIKGR
notes: The whole coding region was used; No signal peptide limits are stated; also called CRELD1α; CREDL1α
Turning to B1, the binding result was “binds”.
